B1: LINE1-full (parent)
chain: UACGUAGGUGGUUUUCCCCUGAUAGUGCUAAGGGGGCCUGGAAGUUUGGACUGGGCAGAGCUCAACACAGCGUGGCAAAGUGGCUGUGGCUAGACUGCCUCUCUGGAUUCCUCGUCACUCAGCAGGGCAUCUCUGAGAGAAAUGCC

The data set covers variants of B1. Nature of the data set: self-cleavage, relative activity (ratio to wild type); higher = more cleavage; in vitro, sequencing; the parent is a self-cleaving ribozyme.
With UACGUAGGUGGUUUUCCCCUGAUAGUGCUAAGGGGGUCUGGAAGUUUGGACUGGGCAGAGCUCAACACAGCGUGGCAAAGUGGCUGUGGCUAGACUGCCUCUCUGGAUACCUCGUCACUCAGCAGGGCAUCUCUGAGAGAAAUGCC [C37U U109A], the self-cleavage came to 1.24.
For the variant UACGUAGGUGGUUUUCCCCUGAUAGUGCUAAGGGGGUCUGGAAGUUUGGACUGGGCAGAGCUCAACACAGCGUGGCAAAGUGGCUGUGGCUAGACUGCCUCUCUGGAUUCCUCGUCACUCAGCAGGGCAUCUCUGAGAGAAAUGCC [C37U], the self-cleavage came to 1.23.
As to UACGUAGGUGGUUUUCCCCUGAUAGUGCUAAGGGGGCAUGGAAGUUUGGACUGGGCAGAGCUCAACACAGCGUGGCAAAGUGGCUGUGGCUAGACUGCCUCUCCGGAUUCCUCGUCACUCAGCAGGGCAUCUCUGAGAGAAAUGCC [C38A U104C], the self-cleavage came out at 0.82.
Take UACGUAGGUGGUUUUCCCCUGAUAGUGCUAAGGGGGUCUGGAAGUUUGGACUGGGCAGAGCUCAACACAGCGUGGCAAAGUGGCCGUGGCUAGACUGCCUCUCUGGAUUCCUCGUCACUCAGCAGGGCAUCUCUGAGAGAAAUGCC [C37U U85C]: the self-cleavage is 0.19.
Turning to UACGUAGGUGGUUUUCCCCUGAUAGUGCUAAGGGGGUCUGGAAGUUUGGACUGGGCAGAGCUCAACACAGCGUGGCAAAGUGGCUGUGGCUAGACUGCCUCUCUGGAUUCCUCGUCACUCAGCAGGGCAACUCUGAGAGAAAUGCC [C37U U130A], the self-cleavage is 0.99.
As for UACGUAGGUGGUUUUCCCCUGAUAGUGCUAAGGGGGUCUGGAAGUUUGGACUGGGCAGAGCUCAACACAGCGUGGCAAAGUGGCUGUGGCUAGACUGCCUCUCUGGAUUCCUCGUCACUCAGCAGGGCAUCUCUGAGGGAAAUGCC [C37U A138G], the self-cleavage was found to be 1.2.
In the case of UACGUAGGUGGUUUUCCCCUGAUAGUGCUAAGGGGGUCUGGAAGUUUGGACUGGGCAGAGCUCAACACAGCGUGGCAACGUGGCUGUGGCUAGACUGCCUCUCUGGAUUCCUCGUCACUCAGCAGGGCAUCUCUGAGAGAAAUGCC [C37U A79C] it was 1.22; in that of UACGUAGGUGGUUUUCCCCUGAUAGUGCUAAGGGGGCAUGGAAGUUUGGACUGGGCAGAGCUCAACACAGCGUGGCAAAGUGGCUGUGGCUAGACUGCCUCUCUGGAUUCCUCGUCACUCAGCAGGGCAUCUCUGGGAGAAAUGCC [C38A A136G], 0.7.
As to UACGUAGGUGGUUUUCCCCUGAUAGUGCUAAGGGGGCAUGGAAGUUUGGACCGGGCAGAGCUCAACACAGCGUGGCAAAGUGGCUGUGGCUAGACUGCCUCUCUGGAUUCCUCGUCACUCAGCAGGGCAUCUCUGAGAGAAAUGCC [C38A U52C], the self-cleavage is 0.99.
Under UACGUAGGUGGUUUUCCCCUGAUAGUGCUAAGGGGGUCUGGAAGUUUGGACUGGGCAGAGCUCAACACAGCGUGGCAAAGUGGCUGUGGCUAGACUGCCUCUCUGGAUUCCUCGUCACUCAGCAGGGCAUCUCUGAGAGAAGUGCC [C37U A142G] stands 1.52; under UACGUAGGUGGUUUUCCCCUGAUAGUGCUAAGGGGGUCUGGAAGUUUGGACUGGGCAGAGCUCAACACAGCGUGGCAAAGUGGCUGUGGCUAGACUGCCUCUCUGGAUUCCACGUCACUCAGCAGGGCAUCUCUGAGAGAAAUGCC [C37U U112A], 1.07; under UACGUAGGUGGUUUUCCCCUGAUAGUGCUAAGGGGGCAUGGAAGUUUGGACUGGGCAGAGCUCAACACAGCGUGGCAAAGUGGCUGUGGCUAGACUGCCUCUCUGGAUUCCUCGUCACUCAGCAGGGCAUCUCUGAGAGGAAUGCC [C38A A140G], 1.28.
For UACGUAGGUGGUUUUCCCCUGAUAGUGCUAAGGGGGUCUGGAAGUUUGGACUGGGCAGAGCUCAACACAGCGUGGCAAAGUGGCUGUGGCUAGACUGCCUCUCUGGAUUCCUCGUCACUCAGCAGGGCAUCUCUGUGAGAAAUGCC [C37U A136U], the self-cleavage is 1.49.
As to UACGUAGGUGGUUUUCCCCUGAUAGUGCUAAGGGGGUCUGGAAGUUUGGACUGGGCAGAGCUCAACACAGCGUGGCAAAGUGGCUGUGGCUAGACUGCCUCUCUGGAUUCCUCGUCACUCAGCAGGGCAUCUCUGAGAGGAAUGCC [C37U A140G], the self-cleavage stood at 0.26.
Turning to UACGUAGGUGGUUUUCCCCUGAUAGUGCUAAGGGGGUCUGGAAGUUUGGACUGGGCAGAGCUCAACACAGCGUGGCAAAGUGGCUGUGGCUAGACUGCCUCUCUGGAUUCCUCGUCACUCAGCAGGGCAUCUCUGAGAGUAAUGCC [C37U A140U], the self-cleavage was 1.14.
As to UACGUAGGUGGUUUUCCCCUGAUAGUGCUAAGGGGGUCUGGAAGUUUGGACUGGGUAGAGCUCAACACAGCGUGGCAAAGUGGCUGUGGCUAGACUGCCUCUCUGGAUUCCUCGUCACUCAGCAGGGCAUCUCUGAGAGAAAUGCC [C37U C56U], the self-cleavage came to 0.11.
As for UACGUAGGUGGUUUUCCCCUGAUAGUGCUAAGGGGGUCCGGAAGUUUGGACUGGGCAGAGCUCAACACAGCGUGGCAAAGUGGCUGUGGCUAGACUGCCUCUCUGGAUUCCUCGUCACUCAGCAGGGCAUCUCUGAGAGAAAUGCC [C37U U39C], the self-cleavage came to 1.26.
As to UACGUAGGUGGUUUUCCCCUGAUAGUGCUAAGGGGGUCAGGAAGUUUGGACUGGGCAGAGCUCAACACAGCGUGGCAAAGUGGCUGUGGCUAGACUGCCUCUCUGGAUUCCUCGUCACUCAGCAGGGCAUCUCUGAGAGAAAUGCC [C37U U39A], the self-cleavage is 1.12.
In the case of UACGUAGGUGGUUUUCCCCUGAUAGUGCUAAGGGGGCAUGGAAGUUUGGACUGGGCAGAGCUCAACACAGCGUGGCAAAGUGGCUGUGGCUAGACUGCCUCUCUGGAUUCCUCGUCACUCAGCAGGGCACCUCUGAGAGAAAUGCC [C38A U130C] it was 1.41; in that of UACGUAGGUGGUUUUCCCCUGAUAGUGCUAAGGGGGCAUGGAAGUUUGGACUGGGCAGAGCUCAACACGGCGUGGCAAAGUGGCUGUGGCUAGACUGCCUCUCUGGAUUCCUCGUCACUCAGCAGGGCAUCUCUGAGAGAAAUGCC [C38A A69G], 0.61.
With UACGUAGGUGGUUUUCCCCUGAUAGUGCUAAGGGGGUCUGGAAGUUUGGACUGGGCAGAGCUCAACACAGCGUGGCAAAGUGGCUGUGGCUAGACUGCCUCUCUGGGUUCCUCGUCACUCAGCAGGGCAUCUCUGAGAGAAAUGCC [C37U A107G], the self-cleavage worked out at 1.07.
Turning to UACGUAGGUGGUUUUCCCCUGAUAGUGCUAAGGGGGUCUGGAAGUUUGGACUGGGCAGAGCUCAACACAGCGUGGCAAAGUGGCUGUGGCUAGACUGCCUCUCUGGAUUCCUCGUCACUCAGCAGGGCAUCUCUGAGAGAAAUGCU [C37U C146U], the self-cleavage stood at 1.27.
Turning to UACGUAGGUGGUUUUCCCCUGAUAGUGCUAAGGGGGUCUGGAAGUUUGGACGGGGCAGAGCUCAACACAGCGUGGCAAAGUGGCUGUGGCUAGACUGCCUCUCUGGAUUCCUCGUCACUCAGCAGGGCAUCUCUGAGAGAAAUGCC [C37U U52G], the self-cleavage was 0.88.
With UACGUAGGUGGUUUUCCCCUGAUAGUGCUAAGGGGGUCUGGAAGUUUGGACCGGGCAGAGCUCAACACAGCGUGGCAAAGUGGCUGUGGCUAGACUGCCUCUCUGGAUUCCUCGUCACUCAGCAGGGCAUCUCUGAGAGAAAUGCC [C37U U52C], the self-cleavage came to 1.13.
As for UACGUAGGUGGUUUUCCCCUGAUAGUGCUAAGGGGGCAUGGAAGUUUGGACUGGGCAGAGCUCAACACAGCGUGGCAAAGUGGCUGUGGCUAGACUGCCUCUCUGGAUUCCUCGUCACUCAGCAGGGCAUCCCUGAGAGAAAUGCC [C38A U132C], the self-cleavage was 1.02.
Take UACGUAGGUGGUUUUCCCCUGAUAGUGCUAAGGGGGUCUGGAAGUUUGGACUGGGCAGAGCUCAACACAGCGUGGCAAAGUGGCUGUGGCUAGACUGCCUCUCUGGAUUCCUCGUCACUCAGCAGGGCAUCUCUGAGAGAAAAGCC [C37U U143A]: the self-cleavage came out at 1.14.
Under UACGUAGGUGGUUUUCCCCUGAUAGUGCUAAGGGGGCAUGGAAGUUUGGACUGGGCAGAGCUCAACACAGCGUGGCAAAGUGGCUGUGGCUAGACUGCCUCUCUGGAUUCCUCGUCACUCUGCAGGGCAUCUCUGAGAGAAAUGCC [C38A A121U] stands 1.42.
As for UACGUAGGUGGUUUUCCCCUGAUAGUGCUAAGGGGGCAUGGAAGUUUGGACUGGGCAGAGCUCAACACAGCGUGGCAAAGUGGCUGUGGCUAGACUGCCUCUCUGGAUUCCUCGCCACUCAGCAGGGCAUCUCUGAGAGAAAUGCC [C38A U115C], the self-cleavage was found to be 1.14.
For the variant UACGUAGGUGGUUUUCCCCUGAUAGUGCUAAGGGGGUCUGGAAGUUUGGACUGGGCAGAGCUCAACACAGCGUGGCAAAGUGGCUGUGGCUAGACUGCCUCUCUGGAUUCCUUGUCACUCAGCAGGGCAUCUCUGAGAGAAAUGCC [C37U C113U], the self-cleavage is 0.42.
With UACGUAGGUGGUUUUCCCCUGAUAGUGCUAAGGGGGCAUGGAAGUUUGGACUGGGCAGAGCUCAACACAGCGUGGCAAAGUGGCUGUGGCUAGACUGCCUCUCUGGAUUCCUCGUCACUCAGCAGGGCAUCUCUGAGAGAUAUGCC [C38A A141U], the self-cleavage worked out at 1.49.
For the variant UACGUAGGUGGUUUUCCCCUGAUAGUGCUAAGGGGGUCUGGAAGUUUGGACUGGGCAGAGCUCAACUCAGCGUGGCAAAGUGGCUGUGGCUAGACUGCCUCUCUGGAUUCCUCGUCACUCAGCAGGGCAUCUCUGAGAGAAAUGCC [C37U A67U], the self-cleavage worked out at 0.08.
Turning to UACGUAGGUGGUUUUCCCCUGAUAGUGCUAAGGGGGUCUGGAAGUUUGGACUGGGCAGAGCUCAACACAGCGUGGCAAAGUGGCUGUAGCUAGACUGCCUCUCUGGAUUCCUCGUCACUCAGCAGGGCAUCUCUGAGAGAAAUGCC [C37U G88A], the self-cleavage worked out at 0.04.
In the case of UACGUAGGUGGUUUUCCCCUGAUAGUGCUAAGGGGGUCUGGAAGUUUGGACUGGGCAGAGCUCAACACAGCGUGGCAAAGUGGCUGUGGCCAGACUGCCUCUCUGGAUUCCUCGUCACUCAGCAGGGCAUCUCUGAGAGAAAUGCC [C37U U91C] it was 0.27; in that of UACGUAGGUGGUUUUCCCCUGAUAGUGCUAAGGGGGUCUGGAGGUUUGGACUGGGCAGAGCUCAACACAGCGUGGCAAAGUGGCUGUGGCUAGACUGCCUCUCUGGAUUCCUCGUCACUCAGCAGGGCAUCUCUGAGAGAAAUGCC [C37U A43G], 1.32; in that of UACGUAGGUGGUUUUCCCCUGAUAGUGCUAAGGGGGUCUGGAAGUUUGGACUGGGCAGAGCUCAACACAGCGUGGCAAAGUGGCUGUGGCUAGACUGCCUCUCUGGAUUCCUCGUCACUCGGCAGGGCAUCUCUGAGAGAAAUGCC [C37U A121G], 1.62.
Turning to UACGUAGGUGGUUUUCCCCUGAUAGUGCUAAGGGGGCAUGGAAGUUUGGACUGGGCAGAGCUCAACACAGCGUGGCAAAGUGGCUGUGGCUAGACUGCCUCUCUGGAUCCCUCGUCACUCAGCAGGGCAUCUCUGAGAGAAAUGCC [C38A U109C], the self-cleavage was found to be 1.
On to UACGUAGGUGGUUUUCCCCUGAUAGUGCUAAGGGGGUCUGGAAGCUUGGACUGGGCAGAGCUCAACACAGCGUGGCAAAGUGGCUGUGGCUAGACUGCCUCUCUGGAUUCCUCGUCACUCAGCAGGGCAUCUCUGAGAGAAAUGCC [C37U U45C], for which the self-cleavage worked out at 1.02.
Consider UACGUAGGUGGUUUUCCCCUGAUAGUGCUAAGGGGGUCUGGAAGUUUGGACUGGGCAGAGCUCAACACAGCGUGGCAAAGUGGCUGUGGCUAGACAGCCUCUCUGGAUUCCUCGUCACUCAGCAGGGCAUCUCUGAGAGAAAUGCC [C37U U96A], for which the self-cleavage was 0.04.
Consider UACGUAGGUGGUUUUCCCCUGAUAGUGCUAAGGGGGUCUGGAAGUUUGGACUGGGCAGAGCUCAACACAGCGUGGCAAAGUGGCUGUGGCUAGACUGCCUCUCUGGAUUCCUCGCCACUCAGCAGGGCAUCUCUGAGAGAAAUGCC [C37U U115C], for which the self-cleavage was 1.67.

Source of the values: the RNAGym collection of RNA variant scans (doi:10.7554/elife.90254).
